Test: soluble on expression in E. coli; label from the status in PepcDB or PDB records

Sequence	soluble on expression in E. coli
MGSDKIHHHHHHMSIFVKTFGGTRVIKDNDIVSARDWPSQKAFALFRYLIFRRNEEVSVEEIYNLFWEDMDDTFAKSNLNTTLHIIRKTTGITSEELFVKGDLCCFFPGGEITIDADIFEECHRNLMKATSDAEREKLLKRMFEIYTGPFLVEDIFAEWVQEIREIYESWYSDVLKELFKLYLSKKDYDAALEMVNAYFQREPYDEDMYYRAIEVLLKKGDITRAKRVYDKLSSHLMEIGIKPRLKFDDFLSKRDSEFMLNGNKAVVVDEKLFERFLFLESRRREKSFVLVEVKLTDKSISTEDVSQRVASQLRKGDVITFSGETIRILFHCPEQRRPTMEKRVVDALEKVGVKKGQYEIS	not soluble
MPKPVIAIVGRPNVGKSTIFNRIVGERVSIVEDIPGVTRDRIYSAGEWLNHEFNIIDTGGIDIGDEPFLTQIRQQAEVAIDEADVIIFMTNGRDGVTAADEEVAKILYRSNKPVVLAVNKVDNPEMRSDIYDFYALGFGEPFPISGTHGLGLGDLLDEAAQHFPKIEEDGYDEDTIRFSLIGRPNVGKSSLVNALLGQERVIVSNVAGTTRDAVDTPYSKDGKDYVIIDTAGMRKKGKVYESTEKYSVLRALRAIERSDVVLVVLDGEEGIIEQDKKIAGYAHDSGRAVVIVVNKWDAVKKDEKTMKAFEENIRAHFQFLEYAPIVFLSAKTRKRTQTLIPVIDEVNESHSIRIQTNVLNDVIMDAVAMNPTPTHNGSRLKIFYATQVAVKPPTFVVFVNDPELLHFSYERFLKNRLRESFGFVGTPIHIIARARD	soluble
MEIAKEIKDFLTTRRARITPDQVGLPTGGRRRVAGLRREVVAMLAGVSAEYYVQIERGGVSGVSDEVLYAIATALRLDDEETKHLFTLARAASTRPRRRIAPRARVEVPEPVQALVDAMITAPAVVQNGHLDIVAVNALGRALYADVFDRSDGVPNLARFIFLDRRAGETFPDWNHAADDAVAILRSEAARSPYSAAVTGLVGELATRSDEFRTRWATHDIKAHRRGTKRFHHPVVGDLTLRFEALEVASAAGLTLFGFTAEPGSPSEESLRLLSSWAASDRPEHQHS	not soluble
YSLYNPLKEAELQIEATRAEHERNQQAYNQLQATDISRQVQHDSDATRQALQAWQNSQTELARIDSQVQYLSAQLKQTDPLTGILTRAQNLCAAQGYSADICRQVAKAADTNDLTLFETELDTYIERVEMAESELDKARQGGDAQAVETARHAYLNALNRLSRQIHSLKTGVAGIRMPNLAELISRSANTAVSEQAAYNTGRQQAGRRIDRHLTDPQQQNIWLETGTQQTDYHSGTHRPYQQTTNYAHIGIQTGITDRLSVGTILTDERTNNRFDEGVSARNRSNGAHLFVKGENGALFAAADLGYSNSRTRFTDYDGAAVRRHAWDAGINTGIKIDTGINLRPYAGIRINRSNGNRYVLDGAEINSPAQIQTTWHAGIRLDKTVELGQAKLTPAFSSDYYHTRQNSGSALSVNDRTLLQQAAHGTLHTLQIDAGYKGWNAKLHAAYGKDSNTARHKQAGIKIGYNW	not soluble
APTAPSIDMYGSNNLQFSKIELAMETTSGYNDMVKYHELAKIKVKFNQWSGTSGDTYNVYFDGVKVATGAITGSQTTASFEYGQGGLYQMEIEACDATGCSKSAPVEITIADTDGSHLKPLTMNVDPNNKSYNTDPSIVMGTYFVEWGIYGRDYTVDNMPVDNLTHILYGFIPICGPNESVKSVGGNSFNALQTACRGVNDYEVVIHDPWAAYQKSFPQAGHEYSTPIKGNYAMLMALKQRNPDLKIIPSIGGWTLSDPFYDFVDKKNRDTFVASVKKFLKTWKFYDGVDIDWEFPGGGGAAADKGDPVNDGPAYIALMRELRVMLDELEAETGRTYELTSAIGVGYDKIEDVDYADAVQYMDYIFAMTYDFYGGWNNVPGHQTALYCGSFMRPGQCDGGGVDENGEPYKGPAYTADNGIQLLLAQGVPANKLVLGTAMYGRGWEGVTPDTLTDPNDPMTGTATGKLKGSTAQGVWEDGVIDYKGIKSFMLGANNTGINGFEYGYDAQAEAPWVWNRSTGELITFDDHRSVLAKGNYAKSLGLAGLFSWEIDADNGDILNAMHEGMAGGVVTPPNRRSHHHHHH	soluble
RVASNLDNKARVTELFKSAYSILTEVEKMAVEGKMPEEEAKALATRLLRNNIYKDNEYVYVADENMMFIAAPLDPQLHGTSFHDFKDGSGNSVGQ	not soluble
MAHHHHHHMILHGALSQERDRLLSSYLKSPITLSFPPPLPLLALPSPPSFFVYKKNVFFFRLGMGDARSASSKASSPSCVLAATPRDFGRSAEPGDSPRPPIIAVLYRPGQAKRERQPARGGRGGGQRRLVSYFLPALAAHVRHGKQWTTYPLSFLYPYRPSHSLSTPPHTPSIITDPRITRRKLASVLSLFYLQSVTMMASGGDEQLDALVDSILQSSDHLGSIDQITQRLPSPQQQQLSNPAFTSSTQQREHTSSDSHDTGVRAHMHAVSPGGSSSSVGNFVVAVPAAHHASASTSRATATHLDTEDGEKGEEEDDLSALVERILAGPGVRGRPSTSSASSPRFSQVPPPHIGNSGATSTSGLKGATRVKGGSSSLSRTFGAGPASPNARMQAVVRRLTLWYERKEAKRVQAVYEALEREQLDCTFEPRINRLGVEVGGSVVVDEDDRPLHRRHYSADEYPRRSSASSKARGSSGSRAVSHTNTISMSSSSSRVTPHVCEYIPSLQPPSQPITGADAFVERLRRAQDERDTVREAEEAKRLHYYDPTTFRRDLTVPVPFEFVETRPRRLAAAMTAAAGGSPSRGPGDIVGVTRTSIPPFSARAAALAACGDAGATPPRPAEDGFRDVNEDKRLTPENTFLSLAPHIRETLLFDRQMELQLRRATDSVRRVTRGE	not soluble
MGSDKIHHHHHHMKDGKLYVAFSGGKDSSLVAILAKMALGEERVELVTVDWSPYTYERSREIVRNFAEKHGLKHTFIPSNRMQEKVWKHGPSCNACTRDVKTVLVKRYAQGHLVASGANASDSWGKTGLKVFDGVYSPLCRVGKEEINEMLKFLGLEVKKIGESAGREGCKLKHLLKMLINPDYHGKAVSTANEILLRVLEEHGFKPELANVKIIGPLSRNIALVNVKPLPPEKVMNEIVEKLSAEETIDGVIVVDGPMKLVVLASPAIYRNEESRKWIKEGRLQPEFAFPIEIEWRESKNNKLRTFQVVDARKE	not soluble
MTATTNESQEIAMTATTADEIPASTEQNLRIVQRVIFPANRDLDTLPLYVDPDTNKLHTSGGGADVQAIGMARKLHPEDILNRGSVQVRRGERLSFGSYFNAFPASYWRKWTIATKTVLHIETEGEGTVIVYRSNARGASQRVDSILVEGPSTNEFELTLAPFGDGGWYWFDLIAGGDGMTLKSAHWAVPDEGRPQGRVTLGVTTFNRADYCLETIKSIDGDAGLREILAELIIVDQGNKKVADQAGFDAVAESMGDQLRIINQGNLGGSGGFARNMYEMVVSDKSDYVMLLDDDIELETEGVMRAVAFADLCRKPTIVGGHMFDMYNKSVLHAYSEVVNFYRFLWGPVEGLGNHDFSTAGLRSTPQLHRRWDADYNGWWMCLIPKTVVETIGLSLPVFIKWDDAEYSLRGRAAGFPTVTLPGAAVWHVSWADKDDSVDWQAYYHERNRLIATLLHSPFPKGGRILRESLNTDVKHLVSMQYYPEQARVMALRDVLAGPDNLHKQLPTTMPKLRAMREEFPDSQVKTDPAAFPEVFRKRPPKKPQSFKQPGALGLLPWAVKTVLKQTLAPVRGTAKAAPEAHVAHQDGKWWSLAHLDSAVVSNADGTGASWHLRNPKMARQLVVESAKLHAQLFSNWETLRAQYREALPEITSMESWRETFEASEPSK	not soluble
MIRWFRNFGALFKKPRGAGLMKNEQTHNLQRVVQNDITCPEEQRSTGGKGGGGGSHGGHGGSHGGSHGGHGSHGGSYGGHSGHGRSFSTSSGSSGYRGLSSGSTNTSYSKSTPRTNSGYSTGKTTKTASSSRNYSNTSSTRSTTKPSKSSYSKRSTKSTKSLNYSSSSLGSKSIEKSRRSSRKSGSRQDSVASRRQLRSVSSKPQKKYVATDMPSTVSTGRSRGRSVYRRNNVNADVSQRQSRSMSVSRGRSRNRSQNRERSPSIEKSTRSQHVSRKDAFNSHDVLSPTNRSGSVHRSHSAHHERTFEERHKTPNGVWNEMFPKGTLVMYTDGSYLKRPPTSGIGIFVGPGHELNRSQRIRGPIQDNNYAEFIAVRTALQNALKNENYRDQKVVIRTDCLNVIEALQGTRPTAFVDVKSQVEFLSKQFPKGVHFQHVYAHAGDPGNEMADLFAGQASSKSQNSFGGGQRTRSASTARGRSRERNRLRSKSNDPSFIRSRSHSIHSRK	not soluble
MEEQREALRKIIKTLAVKNEEIQSFIYSLKQMLLNVEANSAKVQEDLEAEFQSLFSLLEELKEGMLMKIKQDRASRTYELQNQLAACTRALESSEELLETANQTLQAMDSEDFPQAAKQIKDGVTMAPAFRLSLKAKVSDNMSHLMVDFAQERQMLQALKFLPVPSAPVIDLAESLVADNCVTLVWRMPDEDSKIDHYVLEYRRTNFEGPPRLKEDQPWMVIEGIRQTEYTLTGLKFDMKYMNFRVKACNKAVAGEFSEPVTLETPAFMFRLDASTSHQNLRVDDLSVEWDAMGGKVQDIKAREKDGKGRTASPINSPARGTPSPKRMPSGRGGRDRFTAESYTVLGDTLIDGGEHYWEVRYEPDSKAFGVGVAYRSLGRFEQLGKTAASWCLHVNNWLQVSFTAKHANKVKVLDAPVPDCLGVHCDFHQGLLSFYNARTKQVLHTFKTRFTQPLLPAFTVWCGSFQVTTGLQVPSAVRCLQKRGSATSSSNTSLT	soluble
MSLHKRMKKKLILAAAGAMAVFSLAACSSGSKDIATMKGSTITVDDFYNQIKEQSTSQQAFSQMVIYKVFEEKYGDKVTDKDIQKNFDEAKEQVEAQGGKFSDALKQAGLTEKTFKKQLKQRAAYDAGLKAHLKITDEDLKTAWASFHPEVEAQIIQVASEDDAKAVKKEITDGGDFTKIAKEKSTDTATKKDGGKIKFDSQATTVPAEVKEAAFKLKDGEVSEPIAATNMQTYQTTYYVVKMTKNKAKGNDMKPYEKEIKKIAEETKLADQTFVSKVISDELKAANVKIKDDAFKNALAGYMQTESSSASSEKKESKSSDSKTSDTKTSDSEKATDSSSKTTESSSKEGGSHHHHHH	soluble
MKIPDLTNYEHLIGGLCGGVTSTVVCHPFDLLKIRFSANEGSSLRPQYSSYADAVRKIVRVEGVRGLYQGWTPSLIGASLSWGLYFQWYNSLRTKIYENFSTGSKLANNLISGCISGSAIMCITNPIWLTKTRLCLQYENQQSKKYAGMMDCLKKTVKQEGFFGLYRGFVTGVIGTTHGAVQIAAYSWIIDKRCQSQGLPKDSFLSQTDYVIASSTSKVLATTITFPYQVLRTRMQDHNTDSRGVWKTTLKTIHNEGIGGLWKGCLIANVRQLPAAVVTFLTYENVKRLVGMTKQI	not soluble
VALTVYYPPRVVSLEEPELRLEHCIEFVVRGNPPPTLHWLHNGQPLRESKIIHVEYYQEGEISEGCLLFNKPTHYNNGNYTLIAKNPLGTANQTINGHFLKEPFPVDEVSPTPPITVT	soluble
MSLDAVDGVRLEEGDAIDWIVFDRPQAANSFSATLLEQFSALVKDRQANGAPVLGIRGSGRGFSSGMDLGEYNATSGPTSDVLRLSSYVERWLDLWRHPKPVIVAVHGYCIGVAAQLASFADILVVAEDAMISEPTIPIGGGFIAPTWVSHVGSRHAKEFAFLPGNRIDGRMAAAWGWANCAVPASEVIACCESLAQRMKLMPPAVLAMKKRSINRAMEAAGFHAAASAIAESDALLHLEPEVTAIRNRLRTEDLKAVVGSYAGESSQEIFQREGHHHHHH	soluble
MGHHHHHHSHAESIKNQMTVKEWEKVFEMSQDKNLYHNLCTSLFPTIHGNDEVKRGVLLMLFGGVPKTTGEGTSLRGDINVCIVGDPSTAKSQFLKHVEEFSPRAVYTSGKASSAAGLTAAVVRDEESHEFVIEAGALMLADNGVCCIDEFDKMDVRDQVAIHEAMEQQTISITKAGVKATLNARTSILAAANPISGHYDRSKSLKQNINLSAPIMSRFDLFFILVDECNEVTDYAIARRIVDLHSRIEESIDRVYSLDDIRRYLLFARQFKPKISKESEDFIVEQYKHLRQRDGSGVTKSSWRITVRQLESMIRLSEAMARMHCCDEVQPKHVKEAFRLLNKSIIRVETPDVNLDQEEE	not soluble
